Source: publication PMC6842305 (Journal of medicinal chemistry, 2018)

Target: Truncated WDR5 (Δ23, residues 22–334) (UniProt P61964 22-334)
Assay: NMR titration

Binder: Ac-ARTEVHLRKS-NH2 [MLL1 10mer peptide Ac-ARTEVHLRKS-NH2]
- binding result: binds
